According to patent US20250084176A1 (F STAR BETA, published 2025):

Experiments:
[1] = biological target: T1, human CD137, full length, on cells (human, UniProt Q07011 24-255); experiment: cell-based or functional assay
[2] = biological target: T1, human CD137, full length, on cells; experiment: cell-based or functional assay; remark: listed apart in the source
[3] = biological target: T1, human CD137, full length, on cells; experiment: flow cytometry on CD137int DO11.10 cells (ABC 404,597), anti-human IgG-PE detection, geometric mean PE
Protocol: (§1) A range of DO11.10 cells expressing different levels of CD137 were produced as described in Example 3.5. To determine the relative expression of CD137 in each cell line, the antibody binding capacity (ABC) was determined according to manufacturer's protocol (Quantum™ Simply Cellular® #816 Bangs Labs).
(§2) All antibodies tested were diluted in FACS buffer in 120 μl. DO11.10 cells were then centrifuged, supernatant removed and cells resuspended in 100 μl of each antibody dilution and incubated at 4° C. for 45 min. Cells were washed twice by centrifugation with 150 μl FACS buffer, resuspended in 100 μl containing goat anti-human IgG (γ-chain specific) F (ab′) 2 fragment-R-Phycoerythrin antibody (Sigma, P8047) diluted 1:1000 in FACS buffer and incubated at 4° C. for 45 min. The cells were washed once with 150 μl FACS buffer and then with 150 μl DPBS, resuspended in 150 μl DPBS containing DAPI (Biotium, 40043) at 1:10.000 and read on the BDCantoll or iQue (Intellicyt). Data was analysed using FlowJo v10 to determine the signal geometric mean for PE for live cells in each well.

[4] = biological target: T1, human CD137, full length, on cells; experiment: cell-based or functional assay; remark: listed apart in the source
[5] = biological target: T1, human CD137, full length, on cells; experiment: flow cytometry on CD137low DO11.10 cells (ABC 14,208), anti-human IgG-PE detection, geometric mean PE
Protocol: as §1, §2

[6] = biological target: T1, human CD137, full length, on cells; experiment: flow cytometry on CD137int/low DO11.10 cells (ABC 143,065), anti-human IgG-PE detection, geometric mean PE
Protocol: as §1, §2

human CD40 = human CD40 (human, UniProt P25942 21-193); experiment: SPR (Biacore T200), receptor amine-coupled to CM5 chip
Sequence of human CD40 (P25942 21-193 limits assumed): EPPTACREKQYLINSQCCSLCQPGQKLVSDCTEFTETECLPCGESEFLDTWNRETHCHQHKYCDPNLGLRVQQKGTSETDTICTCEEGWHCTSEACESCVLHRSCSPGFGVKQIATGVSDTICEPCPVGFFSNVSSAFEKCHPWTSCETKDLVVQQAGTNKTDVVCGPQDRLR

human GITR = biological target: T2, human GITR (human, UniProt Q9Y5U5 26-161, limits assumed); experiment: as above
T2 sequence (looked up): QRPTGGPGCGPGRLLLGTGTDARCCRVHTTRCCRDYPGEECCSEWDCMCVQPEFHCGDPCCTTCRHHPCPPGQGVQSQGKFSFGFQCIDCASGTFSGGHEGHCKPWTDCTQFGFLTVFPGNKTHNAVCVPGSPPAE

human OX40 = biological target: T3, human OX40 (human, UniProt P43489 29-216, limits assumed); experiment: as above
T3 sequence (looked up): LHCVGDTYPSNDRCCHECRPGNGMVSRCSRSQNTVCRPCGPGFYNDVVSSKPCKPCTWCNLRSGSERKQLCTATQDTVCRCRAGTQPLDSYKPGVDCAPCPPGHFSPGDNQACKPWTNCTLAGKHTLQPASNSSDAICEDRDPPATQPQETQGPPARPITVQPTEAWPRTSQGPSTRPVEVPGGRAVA

hCD137-mFc-Avi [7] = biological target: T4, hCD137-mFc-Avi (human; mouse, UniProt Q07011 24-186, one biotin on the Avi sequence of each monomer (BirA); unbiotinylated in the SPR of Example 5.6); experiment: SPR (Biacore), mAb2 captured by anti-human Fab, antigen in solution, 1:1 Langmuir
T4 construct: Made in-house in HEK293-6E; also called human CD137-mFc-Avi; dimeric human CD137; not shown: mouse IgG2a Fc domain (mIgG2a Fc)
T4 sequence (Q07011 24-186): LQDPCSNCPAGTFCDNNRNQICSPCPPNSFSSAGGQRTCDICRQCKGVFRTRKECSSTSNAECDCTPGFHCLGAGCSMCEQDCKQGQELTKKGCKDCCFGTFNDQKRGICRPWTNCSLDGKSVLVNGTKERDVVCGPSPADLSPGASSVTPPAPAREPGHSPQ
Protocol: (§3) An anti-human Fab capture antibody was immobilised on all four flow cells of a CM5 series S chip (GE Healthcare #BR-1005-30) to an average surface density of 6000 RU following the manufacturer's recommendations (GE Healthcare, human Fab capture Kit, #28958325). IEach mAb² was captured to approximately 150 RU by injecting a 3 μg/ml solution of mAb² diluted in HBS-EP+ buffer (GE Healthcare #BR1006-69) for 60 seconds at 30 μl/min. Then different concentrations of human, cyno or mouse CD137 antigen (unbiotinylated human, cyno or mouse CD137-mFc-Avi or human CD137-Avi-His) in HBS-EP+ buffer were flowed over the chip for 3 min at 60 μl/min and then allowed to dissociate for 10 minutes. After each antigen concentration the chip was regenerated by infecting 10 mM glycine pH 2.1 at a flow rate of 30 μl/min for 30 seconds. Buffer HBS-EP+ was injected before the highest concentration of antigen and after the lowest concentration of antigen for reference subtraction, and one of the concentrations at random was repeated twice. The binding kinetics were fit with a 1:1 Langmuir model to generate equilibrium binding constants (KD) for each sample. Data analysis was performed with BiaEvaluation software version 3.2.

cCD137-mFc-Avi = biological target: T5, cCD137-mFc-Avi (cynomolgus; mouse, one biotin on the Avi sequence of each monomer (BirA); unbiotinylated in the SPR of Example 5.6); experiment: as above
T5 construct: also called cyno CD137-mFc-Avi; dimeric cynomolgus CD137; not shown: mouse IgG2a Fc domain (mIgG2a Fc)
T5 chain: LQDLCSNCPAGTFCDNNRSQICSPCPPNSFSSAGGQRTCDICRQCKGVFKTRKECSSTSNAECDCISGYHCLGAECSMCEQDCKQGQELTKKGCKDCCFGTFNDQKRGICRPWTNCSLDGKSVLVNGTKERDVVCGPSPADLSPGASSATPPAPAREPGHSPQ
Protocol: as §3

mCD137-mFc-Avi = biological target: T6, mCD137-mFc-Avi (mouse, UniProt P20334 24-187, one biotin on the Avi sequence of each monomer (BirA); unbiotinylated in the SPR of Example 5.6); experiment: as above
T6 construct: also called mouse CD137-mFc-Avi; dimeric mouse CD137; not shown: mouse IgG2a Fc domain (mIgG2a Fc)
T6 sequence: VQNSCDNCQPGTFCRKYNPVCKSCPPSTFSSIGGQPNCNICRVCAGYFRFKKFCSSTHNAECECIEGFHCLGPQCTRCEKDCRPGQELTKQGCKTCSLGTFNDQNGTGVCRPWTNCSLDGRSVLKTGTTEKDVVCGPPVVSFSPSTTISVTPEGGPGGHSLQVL
Protocol: as §3

hCD137-Avi-His = biological target: T7, hCD137-Avi-His (human, UniProt Q07011 24-186, single biotin on the Avi sequence (BirA); unbiotinylated in the SPR of Example 5.6); experiment: as above
T7 construct: also called human CD137-Avi-His; monomeric human CD137
T7 sequence (Q07011 24-186): as the sequence (Q07011 24-186) above
Protocol: as §3

hCD137-mFc-Avi [8] = biological target: T4, hCD137-mFc-Avi; experiment: SPR (Biacore T200), mAb2 captured by anti-human Fab, hCD137-mFc in solution, 1:1 Langmuir
Protocol: For the hCD137-mFc-Avi antigen the following method was used: an anti-human Fab molecule was immobilised on a CM5 chip to a surface density of between 9,000 and 11,000 response units (RU). The antibodies were diluted to 4 μg/ml in HBS-EP buffer and captured by the anti-Fab molecule with a flow rate of […].
For mCD137-mFc-Avi binding kinetic determination, a different approach was used. […] The analysis of the data was done using the Biacore T200 evaluation software. Curves were subtracted against a blank flow cell and fitted using a 1:1 Langmuir binding model with mass transfer, setting RI to zero as constant and Rₘₐₓ to local.

[9] = biological target: mouse CD137, full length, on cells (mouse, UniProt P20334 24-256); experiment: cell-based or functional assay
[10] = biological target: T1, human CD137, full length, on cells; experiment: flow cytometry on CD137high DO11.10 cells (ABC 1,206,283), anti-human IgG-PE detection, geometric mean PE
Protocol: as §1, §2

T1 sequence (Q07011 24-255): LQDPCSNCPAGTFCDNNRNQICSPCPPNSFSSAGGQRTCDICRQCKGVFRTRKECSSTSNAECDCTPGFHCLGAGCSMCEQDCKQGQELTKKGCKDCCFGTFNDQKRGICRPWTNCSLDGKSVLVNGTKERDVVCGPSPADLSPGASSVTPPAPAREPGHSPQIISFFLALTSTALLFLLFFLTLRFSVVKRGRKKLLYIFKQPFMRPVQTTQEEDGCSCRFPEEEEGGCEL

B1: G1-AA/20H4.9 (antibody, V domains shown)
VH: QVQLQQWGAGLLKPSETLSLTCAVYGGSFSGYYWSWIRQSPEKGLEWIGEINHGGYVTYNPSLESRVTISVDTSKNQFSLKLSSVTAADTAVYYCARDYGPGNYDWYFDLWGRGTLVTVSS
VL: EIVLTQSPATLSLSPGERATLSCRASQSVSSYLAWYQQKPGQAPRLLIYDASNRATGIPARFSGSGSGTDFTLTISSLEPEDFAVYYCQQRSNWPPALTFGGGTKVEIKR
hIL-2 release, primary human CD8+ T cells, 20H4.9 (row without XL): EC50 [1]: 0.89 nM | hIL-2 release, primary human CD8+ T cells, 20H4.9 + XL (anti-hCH2): EC50 [1]: 0.5 nM | IL-2 release, human CD137 DO11.10 T cell activation assay, Protein L: +XL EC50 [2]: 0.82 nM | EC50 (read off the curve) [3]: ~0.1 nM | IL-2 release, DO11.10.hCD137 T cell activation assay: EC50 [4]: 0.26 nM | EC50 (read off the curve) [5]: ~0.1 nM | EC50 (read off the curve) [6]: ~0.1 nM

B2: G1-AA/HelD1.3 (antibody, human IgG1, kappa, L234A L235A, V domains shown)
VH: QVQLQESGPGLVRPSQTLSLTCTVSGSTFSGYGVNWVRQPPGRGLEWIGMIWGDGNTDYNSALKSRVTMLVDTSKNQFSLRLSSVTAADTAVYYCARERDYRLDYWGQGSLVTVSS
VL: DIQMTQSPASLSASVGETVTITCRASGNIHNYLAWYQQKQGKSPQLLVYNAKTLADGVPSRFSGSGSGTQYSLKINSLQPEDFGSYYCQHFWSTPRTFGGGTKLEIKR
notes: Anti-hen egg lysozyme human IgG1 with the LALA mutation; also called G1-AA/HeID1.3; G1AA/HeID1.3 mAb (with LALA)
binding result [5]: no binding

B3: FS22-053-014/HelD1.3 (bispecific antibody, human IgG1, kappa)
heavy: QVQLQESGPGLVRPSQTLSLTCTVSGSTFSGYGVNWVRQPPGRGLEWIGMIWGDGNTDYNSALKSRVTMLVDTSKNQFSLRLSSVTAADTAVYYCARERDYRLDYWGQGSLVTVSSASTKGPSVFPLAPSSKSTSGGTAALGCLVKDYFPEPVTVSWNSGALTSGVHTFPAVLQSSGLYSLSSVVTVPSSSLGTQTYICNVNHKPSNTKVDKKVEPKSCDKTHTCPPCPAPELLGGPSVFLFPPKPKDTLMISRTPEVTCVVVDVSHEDPEVKFNWYVDGVEVHNAKTKPREEQYNSTYRVVSVLTVLHQDWLNGKEYKCKVSNKALPAPIEKTISKAKGQPREPQVYTLPPSRDELNPPYLFSNQVSLTCLVKGFYPSDIAVEWESNGQPENNYKTTPPVLDSDGSFFLYSKLTVYHWRWLDGNVFSCSVMHEALHNHYTQKSLSLSPG
light: DIQMTQSPASLSASVGETVTITCRASGNIHNYLAWYQQKQGKSPQLLVYNAKTLADGVPSRFSGSGSGTQYSLKINSLQPEDFGSYYCQHFWSTPRTFGGGTKLEIKRTVAAPSVFIFPPSDEQLKSGTASVVCLLNNFYPREAKVQWKVDNALQSGNSQESVTEQDSKDSTYSLSSTLTLSKADYEKHKVYACEVTHQGLSSPVTKSFNRGEC
notes: Mock mAb^2, IgG1 without LALA; also called FS22-053-14; FS22-053-014/HeID1.3
binding result (human CD40): no binding (tested: starting at 1 µM) | binding result (human GITR): no binding (tested: starting at 1 µM) | binding result (human OX40): no binding (tested: starting at 1 µM) | IL-2 release, human CD137 DO11.10 T cell activation assay, Protein L: +XL EC50 [2]: 0.73 nM | Kd (hCD137-mFc-Avi [7]): 3.2 nM | Kd (cCD137-mFc-Avi): 0.9 nM | Kd (mCD137-mFc-Avi): 24 nM | Human monomeric CD137 KD fold difference relative to human dimeric KD (hCD137-Avi-His): 100 fold | Kd (hCD137-mFc-Avi [8]): 4.4 nM | koff (hCD137-mFc-Avi [8]): 0.000366 s⁻¹ | kon (hCD137-mFc-Avi [8]): 83000 M⁻¹ s⁻¹ | IL-2 release, mouse CD137 DO11.10 T cell activation assay, Protein L: +XL EC50 [9]: 2.04 nM | IL-2 release, mouse CD137 DO11.10 T cell activation assay, Protein L: +XL Emax [9]: 28100 pg/mL

B4: FS22-172-003-AA/HelD1.3 (bispecific antibody, human IgG1, kappa, L234A L235A)
heavy: QVQLQESGPGLVRPSQTLSLTCTVSGSTFSGYGVNWVRQPPGRGLEWIGMIWGDGNTDYNSALKSRVTMLVDTSKNQFSLRLSSVTAADTAVYYCARERDYRLDYWGQGSLVTVSSASTKGPSVFPLAPSSKSTSGGTAALGCLVKDYFPEPVTVSWNSGALTSGVHTFPAVLQSSGLYSLSSVVTVPSSSLGTQTYICNVNHKPSNTKVDKKVEPKSCDKTHTCPPCPAPEAAGGPSVFLFPPKPKDTLMISRTPEVTCVVVDVSHEDPEVKFNWYVDGVEVHNAKTKPREEQYNSTYRVVSVLTVLHQDWLNGKEYKCKVSNKALPAPIEKTISKAKGQPREPQVYTLPPSRDELPYIIPPYNQVSLTCLVKGFYPSDIAVEWESNGQPENNYKTTPPVLDSDGSFFLYSKLTVGADRWLEGNVFSCSVMHEALHNHYTQKSLSLSPG
light: DIQMTQSPASLSASVGETVTITCRASGNIHNYLAWYQQKQGKSPQLLVYNAKTLADGVPSRFSGSGSGTQYSLKINSLQPEDFGSYYCQHFWSTPRTFGGGTKLEIKRTVAAPSVFIFPPSDEQLKSGTASVVCLLNNFYPREAKVQWKVDNALQSGNSQESVTEQDSKDSTYSLSSTLTLSKADYEKHKVYACEVTHQGLSSPVTKSFNRGEC
notes: Mock mAb^2, IgG1 with LALA
EC50 (read off the curve) [3]: ~0.5 nM | EC50 (read off the curve) [10]: ~0.5 nM | EC50 (read off the curve) [6]: ~0.8 nM
